{"source": "patent US20030077290A1", "about": "(PHADIA, published 2003)", "molecular_target": "basophil-bound IgE of a grass pollen allergic patient", "test": "cell-based or functional assay", "data": [{"binder": "GKATTEEQKLIEDINASFRAAMATTANVPPADK", "note": "[rPhl p 6 aa 1-33]", "values": [{"measurement": "reduction of histamine release compared to complete rPhl p 6", "result": "~1000", "unit": "fold"}]}]}
